From paper PMC5431883, “Enhancing Specific Disruption of Intracellular Protein Complexes by Hydrocarbon Stapled Peptides Using Lipid Based Delivery” (Scientific Reports, 2017)
Positions of bridges follow the written chain, without caps; N, C: chain ends. Non-standard residues stand in square brackets, D forms with d. R8 = C=CCCCCCC[C@@](C)(N)C(=O)O; S5 = C=CCCC[C@](C)(N)C(=O)O; Ahx = NCCCCCC(=O)O

Columns and labels:
Mdm2 joined to HaloTag [1] = target: T1, Mdm2 joined to HaloTag (UniProt Q00987 1-491, HaloTag covalently labelled with a cell permeable fluorogenic substrate); assay: FRET or BRET; nanoBRET in live HEK293 cells transfected with p53-nanoLUC and Mdm2-HaloTag; stapled peptide titrated (10 points), 10% FCS, signal after 4 hours; conditions: one partner purified
T1 construct: Mdm2 of the p53:Mdm2 NanoBRET System (Promega); Construct of a bought kit (Promega); source: HEK293, transiently transfected, in live cells
T1 sequence (Q00987 whole entry): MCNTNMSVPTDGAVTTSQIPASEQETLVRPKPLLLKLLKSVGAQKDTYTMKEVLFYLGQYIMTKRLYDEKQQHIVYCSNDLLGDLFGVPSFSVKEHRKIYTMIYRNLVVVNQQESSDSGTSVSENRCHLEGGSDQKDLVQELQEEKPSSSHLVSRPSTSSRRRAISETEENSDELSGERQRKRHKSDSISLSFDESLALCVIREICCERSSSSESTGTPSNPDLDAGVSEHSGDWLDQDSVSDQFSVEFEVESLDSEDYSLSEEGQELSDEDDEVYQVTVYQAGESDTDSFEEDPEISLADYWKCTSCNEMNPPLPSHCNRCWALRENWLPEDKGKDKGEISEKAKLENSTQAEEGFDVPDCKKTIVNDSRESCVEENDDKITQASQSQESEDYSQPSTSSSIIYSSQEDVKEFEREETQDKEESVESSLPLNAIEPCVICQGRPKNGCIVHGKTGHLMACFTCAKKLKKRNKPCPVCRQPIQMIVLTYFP

Mdm2 (1-125) [2] = target: T2, Mdm2 (1-125) (UniProt Q00987 1-125); assay: fluorescence polarisation; competitive fluorescence anisotropy (FA) assay on Mdm2 (1-125); Kd determined from the competition; details in the supplementary information; conditions: both partners purified
T2 construct: Mdm2, residues 1-125; source: expressed and purified (host and procedure in the supplementary information)
T2 sequence (Q00987 1-125): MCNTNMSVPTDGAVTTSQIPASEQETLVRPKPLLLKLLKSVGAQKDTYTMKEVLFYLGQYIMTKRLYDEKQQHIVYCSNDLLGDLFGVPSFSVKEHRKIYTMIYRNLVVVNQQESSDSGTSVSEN

Mdm2 joined to HaloTag [3] = target: T1, Mdm2 joined to HaloTag; assay: FRET or BRET; nanoBRET in live HEK293 cells transfected with p53-nanoLUC and Mdm2-HaloTag; stapled peptide titrated (10 points), 0% FCS, signal after 4 hours; conditions: one partner purified
Mdm2 (1-125) [4] = target: T2, Mdm2 (1-125); assay: cell-based or functional assay

IC50 (Mdm2 joined to HaloTag [1]): 17.5 ± 1.3 µM | Kd (Mdm2 (1-125) [2]): 24.4 ± 2.3 µM | IC50 (Mdm2 joined to HaloTag [3]): 3.9 ± 0.2 µM | EC50 of p53 activation, T22 p53 reporter cells (β-galactosidase), 0% FCS; blocks Mdm2:p53 (Mdm2 (1-125) [4]): 0.8 µM | EC50 of p53 activation, T22 p53 reporter cells (β-galactosidase), 10% FCS; blocks Mdm2:p53 (Mdm2 (1-125) [4]): 10 µM
Binder: Ac-KK[Ahx]TSF[R8]EYWALL[S5]ENF-NH2 (staple 7-14) [VIP-82]
